Source: IntAct's records for PubMed 19666485

B1: Chromodomain-helicase-DNA-binding protein 1-like (Homo sapiens), Q86WJ1-1 (parent)
chain: MERAGATSRGGQAPGFLLRLHTEGRAEAARVQEQDLRQWGLTGIHLRSYQLEGVNWLAQRFHCQNGCILGDEMGLGKTCQTIALFIYLAGRLNDEGPFLILCPLSVLSNWKEEMQRFAPGLSCVTYAGDKEERACLQQDLKQESRFHVLLTTYEICLKDASFLKSFPWSVLVVDEAHRLKNQSSLLHKTLSEFSVVFSLLLTGTPIQNSLQELYSLLSFVEPDLFSKEEVGDFIQRYQDIEKESESASELHKLLQPFLLRRVKAEVATELPKKTEVVIYHGMSALQKKYYKAILMKDLDAFENETAKKVKLQNILSQLRKCVDHPYLFDGVEPEPFEVGDHLTEASGKLHLLDKLLAFLYSGGHRVLLFSQMTQMLDILQDYMDYRGYSYERVDGSVRGEERHLAIKNFGQQPIFVFLLSTRAGGVGMNLTAADTVIFVDSDFNPQNDLQAAARAHRIGQNKSVKVIRLIGRDTVEEIVYRKAASKLQLTNMIIEGGHFTLGAQKPAADADLQLSEILKFGLDKLLASEGSTMDEIDLESILGETKDGQWVSDALPAAEGGSRDQEEGKNHMYLFEGKDYSKEPSKEDRKSFEQLVNLQKTLLEKASQEGRSLRNKGSVLIPGLVEGSTKRKRVLSPEELEDRQKKRQEAAAKRRRLIEEKKRQKEEAEHKKKMAWWESNNYQSFCLPSEESEPEDLENGEESSAELDYQDPDATSLKYVSGDVTHPQAGAEDALIVHCVDDSGHWGRGGLFTALEKRSAEPRKIYELAGKMKDLSLGGVLLFPVDDKESRNKGQDLLALIVAQHRDRSNVLSGIKMAALEEGLKKIFLAAKKKKASVHLPRIGHATKGFNWYGTERLIRKHLAARGIPTYIYYFPRSKSAVLHSQSSSSSSRQLVP

Variants of: B1
Settings: with parp1_human PARP1, P09874
Chain of parp1_human PARP1, P09874 (P09874 whole entry): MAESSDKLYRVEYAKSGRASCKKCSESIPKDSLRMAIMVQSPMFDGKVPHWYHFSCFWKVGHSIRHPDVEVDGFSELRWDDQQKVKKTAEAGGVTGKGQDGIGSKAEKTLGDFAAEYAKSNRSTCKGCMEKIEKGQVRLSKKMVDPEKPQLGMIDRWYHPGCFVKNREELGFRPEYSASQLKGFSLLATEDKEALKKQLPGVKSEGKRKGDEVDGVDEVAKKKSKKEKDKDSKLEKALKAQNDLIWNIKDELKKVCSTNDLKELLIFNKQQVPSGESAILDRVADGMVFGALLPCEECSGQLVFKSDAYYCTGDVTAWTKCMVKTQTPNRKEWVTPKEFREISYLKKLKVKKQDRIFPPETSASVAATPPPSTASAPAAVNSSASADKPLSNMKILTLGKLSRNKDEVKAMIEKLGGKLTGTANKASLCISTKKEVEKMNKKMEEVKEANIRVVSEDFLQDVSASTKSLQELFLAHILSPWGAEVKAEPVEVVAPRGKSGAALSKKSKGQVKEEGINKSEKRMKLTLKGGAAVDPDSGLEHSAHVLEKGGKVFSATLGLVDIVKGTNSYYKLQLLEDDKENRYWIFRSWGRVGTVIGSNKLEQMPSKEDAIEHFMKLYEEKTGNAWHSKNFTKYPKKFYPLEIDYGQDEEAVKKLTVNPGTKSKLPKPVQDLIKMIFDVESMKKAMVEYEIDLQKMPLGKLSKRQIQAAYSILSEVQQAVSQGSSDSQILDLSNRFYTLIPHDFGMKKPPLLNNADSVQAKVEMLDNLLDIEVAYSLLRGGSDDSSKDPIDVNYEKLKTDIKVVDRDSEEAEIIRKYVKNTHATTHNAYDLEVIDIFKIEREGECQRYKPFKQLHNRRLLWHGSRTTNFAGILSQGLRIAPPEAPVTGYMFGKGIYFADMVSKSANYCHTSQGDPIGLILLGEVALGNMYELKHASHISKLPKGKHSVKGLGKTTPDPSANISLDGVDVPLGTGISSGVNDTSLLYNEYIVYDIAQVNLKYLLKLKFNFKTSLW

| Variant | effect of a mutation on the interaction |
| --- | --- |
| D723A | disrupting interaction |
| E175Q | disrupting interaction |
